{"source": "the nanobody polyreactivity screen of Harvey et al. (2022)", "data": [{"assay": "yeast display, Sf9 membrane polyspecificity reagent, FACS + sequencing; frameworks hold sequencing errors", "in_short": "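Nanobodies from a synthetic yeast display library (Saccharomyces cerevisiae BJ5465), induced 36–48 hours with galactose, were stained 1 hour at 4 °C with 10% biotinylated, detergent-solubilized Sf9 membrane reagent, enriched on streptavidin microbeads, then FACS-sorted. Anti-HA (expression) and streptavidin (reagent binding) fluorescence set low and high (top ~1%) gates. Polyreactivity labels come from the gate of origin. Genes were colony-PCR amplified, MiSeq 2 × 250 sequenced and filtered by CDR length.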", "values": [{"sequence": "QVQLVESGGGLVQAGGSLRLSCAASGFTFNRYAMGWYRQAPGKERELVAAITSGGRTYYADSVKGRFTISRDNAKNTVYLQMNSLKPEDTAVYYCATLYVRNVSGYDYWGQGTQVTVSS", "polyreactivity (PSR sort gate)": "high polyreactivity"}, {"sequence": "QVQLVESGGGLVQAGGSLRLSCAASGFTFNSYAMGWYRQAPGKEREFVAAISRSGSNTNYADSVKGRFTISRDNAKNTVYLEMNSLKPEDTAVYYCAARVSSVTRSGFGYWGEGTQVTVSS", "polyreactivity (PSR sort gate)": "high polyreactivity"}, {"sequence": "QVQLVESGGGLVQAGGSLRLSCAASGFTFNSYAMGWYRQAPGKKGSWLAITSDGSTYYADSVKGRFTISRDNAKNTVYLQMNSLKPEDSAVYFCAVRTSWYGAASRYYYWGQGTKVTVSS", "polyreactivity (PSR sort gate)": "high polyreactivity"}, {"sequence": "QVQLVESGGGLVQAGGSLRLSCAASGFTFNYYAMGLYRQAPGKERELVARITSGGSTYYADSVKGRFTISRDNAKNTVYLQMNSLKPEDTAVYYCNVDVSVEVAYWGQGTQVTVSS", "polyreactivity (PSR sort gate)": "low polyreactivity"}, {"sequence": "QVQLVESGGGLVQAGGSLRLSCAASGFTFNYYAMGWYRQAPGKERELVAGITRSGVSTNYADSVKGRFTISRDNAKNTVYLQMNSLKPEDTAVYYCAREEGRRYRGWPYVYAPQHDYWGQGTQVTVSS", "polyreactivity (PSR sort gate)": "high polyreactivity"}, {"sequence": "QVQLVESGGGLVQAGGSLRLSCAASGFTFNYYVMGWYRQAPGKEREMVSAISRGGGSTYYADSVKGRFTISRDNAKNTVYLQMNSLKPEDTEVYYCAARPYSYLFFYWGQGTQVTVSS", "polyreactivity (PSR sort gate)": "high polyreactivity"}, {"sequence": "QVQLVESGGGLVQAGGSLRLSCAASGFTFPAYAMGWYRQAPGKERELVAAISSRGGSTYYADSVKGRFTISRDNAKNTVYLQMNSLKPEDTAVYYCASRRANGYYYWGQGTQVTVSS", "polyreactivity (PSR sort gate)": "high polyreactivity"}, {"sequence": "QVQLVESGGGLVQAGGSLRLSCAASGFTFPGNAMGWYRQAPGKEREFVAAITRSSGSTSYADSVKGRFTISRDNAKNTVYLQMTSLKPEDTAVYRDYWGQGTQVTVSS", "polyreactivity (PSR sort gate)": "low polyreactivity"}, {"sequence": "QVQLVESGGGLVQAGGSLRLSCAASGFTFPGYAMGGYRQAPGKERELVAAISSTDRTTYADSVKGRFTISRDNAKNTVYLQMNSLKPEDTAVYYCNTATRRRPRGYWGQGTQVTVSS", "polyreactivity (PSR sort gate)": "high polyreactivity"}, {"sequence": "QVQLVESGGGLVQAGGSLRLSCAASGFTFPGYAMGWYRQAPGKERELVAAISYSSGSTYYADSVKGRFTISRDNAKNTVYLQMNSLKPEDTAVYYCNRVYRFRGITELDYWGQGTQVTVSS", "polyreactivity (PSR sort gate)": "high polyreactivity"}, {"sequence": "QVQLVESGGGLVQAGGSLRLSCAASGFTFPNYAMGWYRQAPGKERELVAAISRRGGRTYYADSVKGRFTISRDNAKNTVYLQMNSLKPEDTAVYYCATEYRGDGPKYDYWGQGTQVTVSS", "polyreactivity (PSR sort gate)": "high polyreactivity"}, {"sequence": "QVQLVESGGGLVQAGGSLRLSCAASGFTFPNYAMGWYRQAPGKERELVAAITSGGGRTNYADSVKGRFTISRDNAKNTVYLQMNSLKPEDTAVYYCAKTRVRGSEFGYWGQGTQVTVSS", "polyreactivity (PSR sort gate)": "low polyreactivity"}, {"sequence": "QVQLVESGGGLVQAGGSLRLSCAASGFTFPPYAMGWYRQAPGKERELVAAISSAGSTKYADSVKGRFTISRDNAKNTVYLQMNSLKPEDSAVYYCDKKGRTARGRYDYWGQGTQVTVSS", "polyreactivity (PSR sort gate)": "low polyreactivity"}, {"sequence": "QVQLVESGGGLVQAGGSLRLSCAASGFTFPRNAMGWYRQAPGKERELVAAISRGGGGTYYADSVKGRFTISRDNAKNTVYLQMNSLKPEDTAVYYCNARSVVREFNYWGQGTQVTVSS", "polyreactivity (PSR sort gate)": "high polyreactivity"}, {"sequence": "QVQLVESGGGLVQAGGSLRLSCAASGFTFPRYAMGWYRQAPGKERELVAAITSGDRTYYADSVKGRFTISRDNAKNTVYLQMNSLKPEDTAVYYCAKSSPRKSSQKHSFYEYNYWGQGTQVTVSS", "polyreactivity (PSR sort gate)": "high polyreactivity"}, {"sequence": "QVQLVESGGGLVQAGGSLRLSCAASGFTFPSYAMGWYRQAPGKERELGAVISRRGGSTYYADSVKGRFTISRDNAKNTVYLQLNSLKPEDTAVYYCARPRQPGSLYGYWGQGTQVTVSS", "polyreactivity (PSR sort gate)": "high polyreactivity"}, {"sequence": "QVQLVESGGGLVQAGGSLRLSCAASGFTFPTYAMGWYRQAPGKERELVAALSTSGARTYYADSVKGRFTISRDNAKNTVYLQMNSLKPEDTAVYYCAVGSIYTICFRKGYRFDYWGQGTQVTVSS", "polyreactivity (PSR sort gate)": "high polyreactivity"}, {"sequence": "QVQLVESGGGLVQAGGSLRLSCAASGFTFPVYALGWYRQAPGKEREFVAAITKSGGGTYYADSVKGRFTISRDNAKNTVYLQMTSLKPEDTAVYYCAKASRRFLTLGYDYWGQGTQVTVSS", "polyreactivity (PSR sort gate)": "high polyreactivity"}, {"sequence": "QVQLVESGGGLVQAGGSLRLSCAASGFTFPVYAMGWYRQAPGKEREFVAAITYIGGSTDADSVKGRFTISRDNAKNTVYLQMNSLKPEDTAVYYCAADIITEYRADYLVYLEYDYWGQGTQVTVSS", "polyreactivity (PSR sort gate)": "low polyreactivity"}, {"sequence": "QVQLVESGGGLVQAGGSLRLSCAASGFTFPVYVMGWYRQAPGKERELVSAISGGGGTYYADSVKGRFTISRDNAKNTVYLQMNSLKPEDTAVYYCAADYRTYVYVYGFRHFDYWGQGTQVTVSS", "polyreactivity (PSR sort gate)": "low polyreactivity"}, {"sequence": "QVQLVESGGGLVQAGGSLRLSCAASGFTFPYYAMGWSRQAPGKERELVAAISFSGGSPYYADSVKGRFTISRDNAKNTVYLQMNSLKPEDTAVYYCAATTKYNGRRSYFKFDYWGQGTQVTVST", "polyreactivity (PSR sort gate)": "high polyreactivity"}, {"sequence": "QVQLVESGGGLVQAGGSLRLSCAASGFTFPYYAMGWYRQAPGKERELVAAISKSGGSTYYADSVKGRFTISRDYAKNTVYLQMNSLKPEDTAVYYCAADWYWWSYSDRHDYWGQGIQVTVSS", "polyreactivity (PSR sort gate)": "high polyreactivity"}, {"sequence": "QVQLVESGGGLVQAGGSLRLSCAASGFTFPYYAMGWYRQAPGKERELVAAISYSGSTTYYADSVKGRFTISRDNAKNTVYLQMNSLKPEDTAVYYCAKAGYYYFQQWQVDYWGQGTQVTVSS", "polyreactivity (PSR sort gate)": "high polyreactivity"}, {"sequence": "QVQLVESGGGLVQAGGSLRLSCAASGFTFPYYAMGWYRQAPGKERELVAVISRSGGSTYYADSVKGRFTISRDNAKNTVYLQMNSLKPEDTAVYYCAKRYSLTGGKRTGYYWGQGTQVTVSS", "polyreactivity (PSR sort gate)": "high polyreactivity"}, {"sequence": "QVQLVESGGGLVQAGGSLRLSCAASGFTFPYYSMGWYRQAPGKERELVAAINRSGGTKYADSVKGRFTISRDNAKNTVYVQMNSLKPEDTAVYDCAADSFYSRSRYDYWGQGSQVTVSS", "polyreactivity (PSR sort gate)": "high polyreactivity"}, {"sequence": "QVQLVESGGGLVQAGGSLRLSCAASGFTFQDYAMGWYRQAPGKERELVASISNGGSTYYADSVKGRFTISRDNAKNTVYLQMNSLKPEDTAVYYCAKPYDPGPYHSSYRATDDYWGQGTQVTVSS", "polyreactivity (PSR sort gate)": "low polyreactivity"}, {"sequence": "QVQLVESGGGLVQAGGSLRLSCAASGFTFQGYVMGWYRQAPGKERELVARITNDGSTTYADSVKGRFTISRDNAKNTVYLQMNSLKPEDTAVYYCDRPYRFWRYYGMYYWGQGTQVTVSS", "polyreactivity (PSR sort gate)": "high polyreactivity"}, {"sequence": "QVQLVESGGGLVQAGGSLRLSCAASGFTFQRYAMGWYRQAPGKERELVAAISVRGTRTYYADSVKGRFTISRDNAMNTVYLQMNSLKPEDTAVYYCNADWERDVQDDYWGQGTQVTVSS", "polyreactivity (PSR sort gate)": "high polyreactivity"}, {"sequence": "QVQLVESGGGLVQAGGSLRLSCAASGFTFQRYAMGWYRQAPGKERELVATINWSGRTYYADSVNGRFTISRDNAKNTVYLQMNSLKPEDTAVYYCAAERIQYGWWVLFDYWGQGTQVTVSS", "polyreactivity (PSR sort gate)": "high polyreactivity"}, {"sequence": "QVQLVESGGGLVQAGGSLRLSCAASGFTFQTYAMGWYRQAPGKERELVATINSSGGGTYYADSVKGRFTNSRDNAKNTVYLQMNSLKPEDTAVYYCAADAVWFVGQAFDISDSTTYGYWGQGTQVTVSS", "polyreactivity (PSR sort gate)": "low polyreactivity"}]}]}
